# In patent US20030144205A1:
# T1: mouse RFPL4, full-length (amino acid residues 1-287) (mouse) (UniProt Q8VH31)
# T1 sequence (looked up): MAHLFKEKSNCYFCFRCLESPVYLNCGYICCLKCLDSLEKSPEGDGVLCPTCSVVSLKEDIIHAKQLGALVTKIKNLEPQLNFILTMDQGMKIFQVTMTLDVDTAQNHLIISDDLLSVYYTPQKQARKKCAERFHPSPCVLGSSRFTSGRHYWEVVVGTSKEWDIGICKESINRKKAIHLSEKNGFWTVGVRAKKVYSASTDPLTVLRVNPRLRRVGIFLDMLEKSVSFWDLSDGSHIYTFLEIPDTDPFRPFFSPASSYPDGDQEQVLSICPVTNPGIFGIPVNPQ
# B1: Phosphoserine/threonine/tyrosine interaction protein (STYX) (protein, mouse, UniProt Q60969 1-223, looked up)
# chain: MEDVKLEFPSLPQCKDDAEEWTYPMRREMQEVLPGLFLGPYSSAMKSKLPILQKHGITHIICIRQNIEANFIKPNFQQLFRYLVLDIADNPVENIIRFFPMTKEFIDGSLQNGGKVLVHGNAGISRSAAFVIAYIMETFGMKYRDAFAYVQERRFCINPNAGFVHQLQEYEAIYLAKLTIQMMSPLQIERSLAVHSGTTGSVKRTHEEDDDFGNMQVATAQNG
# Biological target: T1, mouse RFPL4, full-length (amino acid residues 1-287) (mouse)
# Test: yeast two-hybrid mating screen of the ovary cDNA library with pGBKT7-RFPL4 as bait
binder,measurement,value
B1,# of clones,1 clones
